Results reported in patent publication US20160355564.

Tested on: recombinant proinsulin protein

tissue transglutaminase
substrate of the deamidase in test tube: recombinant proinsulin protein was shown to be a substrate for TG2
